According to publication PMC9813921 (Cell reports, 2022):
Blank lines part the entries; values can stand above or below the molecule they belong to.

Legend:
GFP-RRP1B_(RAxA) (human) = GFP-RRP1B_(RAxA) (human) (UniProt Q14684); assay: co-IP
[1] = target: GFP-RRP1B_(S702D) (human) (UniProt Q14684); assay: co-IP
[2] = target: His6-tagged PP1α_(7–330) Q20R (UniProt P62136); assay: SPR
[3] = target: mCherry-LacRepressor-NLS-PP1γ (UniProt P36873); assay: two-hybrid
His6-tagged PP1γ_(7–308) = His6-tagged PP1γ_(7–308) (UniProt P36873 7-308); assay: ITC
His6-tagged PP1α_(7–330) = His6-tagged PP1α_(7–330) (UniProt P62136 7-330); assay: ITC
His6-tagged PP1γ_(7–323) = His6-tagged PP1γ_(7–323) (UniProt P36873 7-323); assay: ITC
[4] = target: His6-tagged PP1α_(7–330) Q20R (UniProt P62136 7-330, Q20R); assay: SPR
Chain of His6-tagged PP1α_(7–330) Q20R (UniProt P62136 7-330, Q20R) (P62136 7-330 Q20R): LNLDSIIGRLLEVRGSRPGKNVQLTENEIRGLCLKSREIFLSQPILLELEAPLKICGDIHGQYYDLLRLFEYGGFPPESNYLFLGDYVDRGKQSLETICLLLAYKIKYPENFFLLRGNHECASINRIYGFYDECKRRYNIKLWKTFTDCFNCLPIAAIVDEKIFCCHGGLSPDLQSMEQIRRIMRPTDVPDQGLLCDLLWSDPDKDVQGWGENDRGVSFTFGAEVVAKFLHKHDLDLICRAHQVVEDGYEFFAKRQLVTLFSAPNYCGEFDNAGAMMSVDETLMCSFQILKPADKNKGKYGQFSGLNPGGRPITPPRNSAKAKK

Chain of His6-tagged PP1α_(7–330) Q20R (UniProt P62136) (P62136 7-330 Q20R): as above
Chain of His6-tagged PP1γ_(7–308) (P36873 7-308): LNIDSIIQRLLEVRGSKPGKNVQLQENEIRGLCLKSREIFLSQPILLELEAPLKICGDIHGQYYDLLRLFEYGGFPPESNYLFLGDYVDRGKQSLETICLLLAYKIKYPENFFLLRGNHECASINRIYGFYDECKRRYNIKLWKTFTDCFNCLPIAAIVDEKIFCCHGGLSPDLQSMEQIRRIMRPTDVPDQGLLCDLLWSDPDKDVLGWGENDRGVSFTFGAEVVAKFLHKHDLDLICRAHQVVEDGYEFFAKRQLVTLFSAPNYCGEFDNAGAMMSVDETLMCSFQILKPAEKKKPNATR
Chain of His6-tagged PP1γ_(7–323) (P36873 7-323): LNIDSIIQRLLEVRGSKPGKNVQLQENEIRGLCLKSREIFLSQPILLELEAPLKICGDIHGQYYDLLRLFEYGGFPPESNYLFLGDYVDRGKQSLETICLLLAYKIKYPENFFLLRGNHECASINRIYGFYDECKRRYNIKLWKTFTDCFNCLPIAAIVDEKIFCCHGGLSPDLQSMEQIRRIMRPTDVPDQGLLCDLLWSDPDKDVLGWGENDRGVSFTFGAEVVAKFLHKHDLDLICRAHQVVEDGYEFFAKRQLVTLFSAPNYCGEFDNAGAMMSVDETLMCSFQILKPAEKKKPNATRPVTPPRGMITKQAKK
Chain of His6-tagged PP1α_(7–330) (P62136 7-330): as the sequence (P62136 7-330 Q20R) above, with R14Q counted along it
Chain of mCherry-LacRepressor-NLS-PP1γ (P36873 whole entry): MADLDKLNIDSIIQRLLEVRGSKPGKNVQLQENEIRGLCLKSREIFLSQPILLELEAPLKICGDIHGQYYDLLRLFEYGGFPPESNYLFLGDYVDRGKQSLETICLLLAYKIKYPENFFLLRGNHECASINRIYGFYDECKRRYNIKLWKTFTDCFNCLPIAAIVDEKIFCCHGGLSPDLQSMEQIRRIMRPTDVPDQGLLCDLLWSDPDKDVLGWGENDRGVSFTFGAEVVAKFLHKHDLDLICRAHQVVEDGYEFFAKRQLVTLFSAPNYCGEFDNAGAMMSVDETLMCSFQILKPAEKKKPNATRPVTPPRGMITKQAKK

Molecule: PP1γ, endogenous (from UniProt P36873 1-323) (enzyme)
- PP1γ co-precipitated, percent of WT GFP-RRP1B (GFP-RRP1B_(RAxA) (human)): 2.1%
- PP1γ co-precipitated, percent of WT GFP-RRP1B [1]: 4.6%

Molecule: RRP1B_(682–727) S702D (from UniProt Q14684) (domain or fragment)
- Kd [2]: 329 nM

B1: RRP1B_(677–736) (domain or fragment)
chain: TPSSSKKVTFGLNRNMTAEFKKTDKSILVSPTGPSRVAFDPEQKPLHGVLKTPTSSPASS
- Kd (His6-tagged PP1γ_(7–308)): 22.6 nM

B2: RRP1B_(657–758) (domain or fragment)
chain: RRAKSSTATHPPGPAVQLNKTPSSSKKVTFGLNRNMTAEFKKTDKSILVSPTGPSRVAFDPEQKPLHGVLKTPTSSPASSPLVAKKPLTTTPRRRPRAMDFF
- Kd (His6-tagged PP1α_(7–330)): 888 nM
- Kd (His6-tagged PP1γ_(7–323)): 40 nM
- Kd (His6-tagged PP1γ_(7–308)): 17.6 nM

Molecule: KKVTFGLNRNMTAEFKKTDKSILVSPTGPSRVAFDPEQKPLH (domain or fragment) [RRP1B_(682–723)]
- Kd [4]: 114 nM

Now from value to molecule:

- Kd [2]: 157 nM
Molecule: RRP1B_(682–727) F715A (from UniProt Q14684) (domain or fragment)

- percent of cells with accumulation at the gene locus [3]: 7%
Molecule: GFP-RRP1B_(S702D) (from UniProt Q14684) (natural protein)

- Kd [4]: 22.5 nM
Molecule: KKVTFGLNRNMTAEFKKTDKSILVSPTGPSRVAFDPEQKPLHGVLK (domain or fragment) [RRP1B_(682–727)]
